The values below are quoted from earlier work in patent US7833964B2, “Methods of reducing visceral fat by increasing levels of insulin-like growth factor-I (IGF-I)” (Tercica, Inc., priority 2003, dated 2010).

The target in data set [1] is T1, placental insulin receptor (Homo sapiens, UniProt P06213).
T1 construct: the placental insulin receptor; host or cells: placenta (endogenous receptor)
Conditions: relative to the comparator named in the value; cited from earlier work.

For data set [2], the target named is T2, human placental Type I IGF receptor (Homo sapiens, UniProt P08069).
T2 construct: the human placental Type I IGF receptor; host or cells: human placenta (endogenous receptor)
Particulars: relative to the comparator named in the value; cited from earlier work.

Data set [3] has as its system Type I IGF receptor of rat and mouse cells. Particulars: relative to IGF-I; cited from earlier work.
A further data set concerns Type 2 IGF receptor. Particulars: relative to human IGF-I; cited from earlier work.

As to “(Leu^24)IGF-I: functional mutant of IGF-I described in Cascieri et al. 1988”, the “affinity to the insulin receptor” value in data set [1] is on record as “lower affinity than IGF-I”. Further, the “affinity to the Type I IGF receptor” value in data set [2] was “lower affinity than IGF-I”. Besides, the “affinity to the Type I IGF receptor of rat and mouse cells” value in data set [3] is “lower affinity than IGF-I”.

With “(Phe^23, Phe^24, Tyr^25)IGF-I: functional mutant of IGF-I described in Cascieri et al. 1988”, the “affinity to the insulin receptor” value in data set [1] is given as “equipotent to human IGF-I”. In addition, the “affinity to the Type 2 IGF receptor” value with Type 2 IGF receptor is reported as “equipotent to human IGF-I”. In addition, the “affinity to the Type I IGF receptor” value in data set [2] is given as “equipotent to human IGF-I”.

“(Ser^24)IGF-I: functional mutant of IGF-I described in Cascieri et al. 1988”: the “affinity to the insulin receptor” value in data set [1] is given as “lower affinity than IGF-I”. In addition, the “affinity to the Type I IGF receptor” value in data set [2] is “lower affinity than IGF-I”. In data set [3], the “affinity to the Type I IGF receptor of rat and mouse cells” value is “lower affinity than IGF-I”.
